Results taken from patent US20220073608A1 (JIANGSU HUAIYU PHARMACEUTICAL, published 2022).

What was measured:
[1] = biological target: T1, mouse SEMA4D, full length, on CHO-K1 cells (CHO-K1 mSEMA4D) (mouse, UniProt O09126 24-861); experiment: FACS, CHO-K1 mSEMA4D cells; Ab 0.534 nM
T1 construct: whole, on cells; also called murine SEMA4D recombinant cells
T1 sequence (looked up): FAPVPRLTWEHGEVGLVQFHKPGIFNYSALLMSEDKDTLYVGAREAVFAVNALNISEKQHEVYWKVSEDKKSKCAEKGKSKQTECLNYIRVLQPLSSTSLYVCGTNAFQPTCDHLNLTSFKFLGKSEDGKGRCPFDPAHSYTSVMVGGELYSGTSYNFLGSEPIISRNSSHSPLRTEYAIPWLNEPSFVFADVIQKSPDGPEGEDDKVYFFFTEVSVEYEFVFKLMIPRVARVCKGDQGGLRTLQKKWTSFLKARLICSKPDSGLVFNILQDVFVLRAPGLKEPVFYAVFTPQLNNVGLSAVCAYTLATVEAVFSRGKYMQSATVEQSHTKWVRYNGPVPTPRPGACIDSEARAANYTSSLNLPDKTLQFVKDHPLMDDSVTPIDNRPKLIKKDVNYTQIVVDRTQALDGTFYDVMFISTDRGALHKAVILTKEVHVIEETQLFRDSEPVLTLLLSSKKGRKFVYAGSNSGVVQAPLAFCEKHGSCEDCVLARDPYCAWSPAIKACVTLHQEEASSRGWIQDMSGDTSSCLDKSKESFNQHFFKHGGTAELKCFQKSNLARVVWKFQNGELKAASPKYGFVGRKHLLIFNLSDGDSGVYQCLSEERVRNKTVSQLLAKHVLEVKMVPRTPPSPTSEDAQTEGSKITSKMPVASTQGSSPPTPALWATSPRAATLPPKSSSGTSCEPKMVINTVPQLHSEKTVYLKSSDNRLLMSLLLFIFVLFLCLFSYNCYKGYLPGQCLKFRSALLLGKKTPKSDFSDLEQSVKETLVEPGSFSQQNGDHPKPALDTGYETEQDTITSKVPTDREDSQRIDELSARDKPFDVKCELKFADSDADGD
Procedure: (§1) After the cells were counted, they were diluted with PBS to 2×10⁶ cells per milliliter. After washing, 100 μL of diluted and purified leading antibodies was added to each well and the plate was incubated for 1 hour on ice. […] Cells were washed 2 times by centrifugation with FACS buffer. The cells were suspended with 200 μL of FACS buffer, FACS (FACS Verse, purchased from BD) was used to detect and analyze the results.

[2] = biological target: T2, hSEMA4D ECD-His (His-tagged human SEMA4D protein extracellular domain, Met22-Arg734) (human, UniProt Q92854 22-734); experiment: ELISA, coated hSEMA4D ECD-His; Ab 0.0107 nM
T2 construct: Expressed in CHO-S cells, purified on Ni column; also called protein immunogen; immunogen A; not shown: His tag of the pCP vector
T2 sequence: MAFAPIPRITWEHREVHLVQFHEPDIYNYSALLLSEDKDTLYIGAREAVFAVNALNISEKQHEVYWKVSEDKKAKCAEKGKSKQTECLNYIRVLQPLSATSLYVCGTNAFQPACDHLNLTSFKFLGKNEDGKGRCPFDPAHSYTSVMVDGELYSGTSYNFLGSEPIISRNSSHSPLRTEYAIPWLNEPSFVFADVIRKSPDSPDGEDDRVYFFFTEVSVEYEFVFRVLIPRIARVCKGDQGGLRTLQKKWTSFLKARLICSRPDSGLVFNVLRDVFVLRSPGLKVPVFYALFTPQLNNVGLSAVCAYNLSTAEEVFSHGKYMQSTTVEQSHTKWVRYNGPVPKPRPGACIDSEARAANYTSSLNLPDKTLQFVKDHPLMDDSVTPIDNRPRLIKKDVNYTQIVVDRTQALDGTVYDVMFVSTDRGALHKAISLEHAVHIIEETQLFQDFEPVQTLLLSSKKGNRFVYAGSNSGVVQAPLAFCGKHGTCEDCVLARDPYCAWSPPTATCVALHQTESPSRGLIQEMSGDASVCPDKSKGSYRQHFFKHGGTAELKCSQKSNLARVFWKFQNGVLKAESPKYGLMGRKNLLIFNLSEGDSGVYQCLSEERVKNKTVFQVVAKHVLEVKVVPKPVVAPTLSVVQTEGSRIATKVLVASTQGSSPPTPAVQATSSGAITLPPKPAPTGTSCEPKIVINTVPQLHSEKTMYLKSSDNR
Procedure: (§2) First, hSEMA4D ECD-His was diluted with PBS to a final concentration of 1.0 μg/mL, and then was added to a 96-well ELISA plate, 100 μL per well, sealed with plastic film and incubated overnight at 4° C. On the next day, the plate was washed with a plate washing solution, that is, PBS buffer containing 0.05% (v/v) Tween20, for 4 times, and added with blocking solution, that is, PBS buffer containing 0.05% (v/v) Tween20 and 2% (w/w) BSA, blocked at 37° C. for 1 hour. The blocking solution was poured out and the plate was washed 4 times with the plate washing solution. 100 μL of the purified leading antibodies obtained in Examples 1 and 2 was added to each well. After incubation at 37° C. for 1 hour, the plate was washed 4 times with a plate washing solution. 100 μL of horseradish peroxidase (HRP) labeled secondary antibody (purchased from Sigma) was added at a dilution of 1:10000 to each well, and the plate was incubated at 37° C. for 1 hour, and washed 4 times with a plate washing solution. 100 μL TMB substrate was added to each well, and the plate was incubated at room temperature for 5 minutes, and added with 100 μL stop solution (1.0N HCl) to each well. A microplate reader (SpectraMax M5e, purchased from Molecular Device) was used to read the A450 nm value. […] Wherein, the data in the table was the OD450 nm value.

[3] = biological target: T2, hSEMA4D ECD-His (His-tagged human …); experiment: ELISA, coated hSEMA4D ECD-His; Ab 0.0533 nM
Procedure: as §2

[4] = biological target: T3, monkey SEMA4D, full length, on CHO-K1 cells (CHO-K1 cSEMA4D) (monkey); experiment: FACS, CHO-K1 cSEMA4D cells; Ab 0.00427 nM
T3 construct: whole, on cells; also called monkey SEMA4D recombinant cells
Procedure: as §1

Binder | MFI [1] | OD450 nm [2] | OD450 nm [3] | MFI [4]
32C8F10 (antibody, V domains shown, Mouse monoclonal antibody purified from hybridoma supernatant on protein A) VH: EVQLQQSGAELVRPGASVKLSCTASGFNIKDEYIHWVKQRPEQGLEWIGWIDPANGHTEYASRFQAKATITADTSSNTAYLQLSSLTSEDTAVYYCTTGDYDGFAYWGQGTLVTVST VL: QIVLTQSPAIMSASPGEKVTISCSARSSVSYMYWYQQKPGSSPKPWIYRTSNLASGVPARFSGSGSGTSYSLTISSMEAEDAATYYCQHYHTYPYTFGGGTKLEIK | 29.8 | 0.207 | 0.551 | 97.6
31C11G2 (antibody, V domains shown, Mouse monoclonal antibody purified from hybridoma supernatant on protein A) VH: EVQLQQSGAELVRPGASVKLSCTASGFNIKDEYIHWVKQRPEQGLEWIGWIDPANGHTEYASRFQAKATITADTSSNTAYLQLSSLTSEDTAVYYCTTGDYDGFVYWGQGTLVTVST VL: QIVLTQSPAIMSASPGEKVTIFCSARSSVSYMYWYQQKPGSSPKPWIYRTSNLASGVPARFSGSGSGTSYSLTISSMEAEDAATYYCQHYHTYPYTFGGGTKLEIK | 30.7 | 0.337 | 0.817 | 139
37C4F7 (antibody, V domains shown, Mouse monoclonal antibody purified from hybridoma supernatant on protein A) VH: EFQLQQSGPEVVKPGASVKISCKASGYSFTDYNMNWMKQSKGKSLEWIGVINPNYGTTTYNQNFKGKATLTVDQSSSTAYMQLNSLTSEDSAVYYCARDMYYVYAYYTMDYWGQGTSVTVSS VL: DVVMTQTPLSLPVSLGDQASISCRSSQSLVHSNGHTYLHWYLQRPGQSPTLLIYKVSNRFSGVPDRFSGSGSGTDFTLKISRVEAEDLGVYFCSQGTHVPWTFGGGTKLEIK | 29.2 | 0.0864 | 0.162 | 38.2

Now from value to binder:

MFI [1] | OD450 nm [2] | OD450 nm [3] | MFI [4] | Binder
30.3 | 0.197 | 0.526 | 152 | 31G10C5 (antibody, V domains shown, Mouse monoclonal antibody purified from hybridoma supernatant on protein A) VH: EVQLQQSGAELVRPGASVKLSCTASGFNIKDDYIHWVKQRPEQGLEWIGWIDPANGHIEYASNFQAKATITADTSSNTAYLQLSSLTSEDTAVYYCTTGDYDGFTYWGQGTLVTVST VL: QIVLTQSPAIMSASPGEKVTISCSARSSVSYMYWYQQKPGSSPKPWIYRTSNLASGVPARFSGSGSGTSYSLTISSMEAEDAATYYCQHYHTYPYTFGGGTKLEIK
29.5 | 0.0878 | 0.194 | 35 | 38H2E3 (antibody, V domains shown, Mouse monoclonal antibody purified from hybridoma supernatant on protein A) VH: EFQLQQSGPEVVKPGASVKISCKASGYSFTDYNMNWMKQSKGKSLEWIGVISPDYGTTTYNQNFKDKATLTVDQSSSTAYMQLNSLTSEDSAVYYCAKDMYYVYAYYTMDYWGHGTSVTVSS VL: DVVMTQTPLSLPVSLGDQASISCRSSQSLVHSNGHTYLHWYLQRPGQSPTLLIYKVSNRFSGVPDRVSGSGSGTDFTLKISRVEAEDLGVYFCSQGTHVPRTFGGGTKLEIK
30.9 | 0.131 | 0.365 | 45.4 | 37F11F9 (antibody, V domains shown, Mouse monoclonal antibody purified from hybridoma supernatant on protein A) VH: EVQLQQSGPVLVKPGASVKMSCKASGYTFTDYYMNWVKQSHGKSLEWIGLINPYSGGSTFNQKFKAKATLTVDKSSSSAYMDLNSLTSEDSAVYYCARVGDGYYGVTHGMDYWGQGTSVTVSS VL: DIVMTPSQKFMSTTVGDRVSITCKASQNVGTAVAWYQQKPGQSPTILIYSASNRYTGVPDRFTGSGSGTDFTLTISNMKSEDLADYFCQQYYIYPFTFAAGTKLELK
31.7 | 0.25 | 0.696 | 92.7 | 42B7G2 (antibody, V domains shown, Mouse monoclonal antibody purified from hybridoma supernatant on protein A) VH: QVQLQQSGAELARPGASVKLSCKASGYTFTDYGISWVKQRTGQGLEWIGEIYLRNDNSYYNEKFKGKATLTADKSSNTAYMELRSLTSEDSAVYFCARWGDHGNNYEDAMDYWGQGTSVTVSS VL: DIVLTQSPASLAMSLGKRATISCRASESVSIIGSNLIHWYQQKPGQPPKLLIYHASNLETGVPARFSGSGSRTDFTLTIDPVEEDDVAIYYCLQSRKVPYTFGGGTKLEIK
